From article doi:10.1101/2020.07.27.222380, “NBS1-CtIP–Mediated DNA End Resection Regulates cGAS Binding to Micronuclei”

Molecular target: cGAS (human, UniProt Q8N884 1-522)
Assay: EMSA; 5-10 uM cGAS, 50 fmol DNA, 1 mM Mg2+; 10 mM Hepes-NaOH pH 7.5, 100 mM NaCl, 1 mM DTT, 1 mM MgCl2, 20 ug/mL BSA, 25-50 fmol DNA, 25 C 30 min; native PAGE 5% or 6% (Methods), 0.5x TBE
Conditions: protein: recombinant; tags: His (pET28a-His-hcGAS); label: 32P

Sequence of cGAS (Q8N884 whole entry): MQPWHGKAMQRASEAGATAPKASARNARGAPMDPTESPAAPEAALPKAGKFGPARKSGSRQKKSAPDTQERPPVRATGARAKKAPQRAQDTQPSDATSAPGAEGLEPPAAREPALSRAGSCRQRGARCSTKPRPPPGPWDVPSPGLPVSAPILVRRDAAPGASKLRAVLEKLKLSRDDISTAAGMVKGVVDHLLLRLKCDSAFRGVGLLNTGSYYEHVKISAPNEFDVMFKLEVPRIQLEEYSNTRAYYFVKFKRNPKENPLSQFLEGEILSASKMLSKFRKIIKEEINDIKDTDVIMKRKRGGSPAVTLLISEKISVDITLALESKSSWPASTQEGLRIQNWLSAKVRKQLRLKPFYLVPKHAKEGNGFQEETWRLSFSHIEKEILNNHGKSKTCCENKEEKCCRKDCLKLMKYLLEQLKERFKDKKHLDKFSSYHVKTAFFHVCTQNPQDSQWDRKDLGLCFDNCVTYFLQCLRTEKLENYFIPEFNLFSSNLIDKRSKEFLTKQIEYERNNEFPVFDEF

B1: ISRE 45-bp dsDNA (dsDNA)
DNA 1: TACAGATCTACTAGTGATCTATGACTGATCTGTACATGATCTACACCAAAGAGCATTGTAGATCATGTACAGATCAGTCATAGATCACTAGTAGATCTGTA
DNA 2: TACAGATCTACTAGTGATCTATGACTGATCTGTACATGATCTACAATGCTCTTTGGTGTAGATCATGTACAGATCAGTCATAGATCACTAGTAGATCTGTA
  binding result: binds
